Patent publication US20230080842A1 (WUHAN YZY BIOPHARMA, published 2023)

B1: Y116-B1 (bispecific antibody)
light: DIQMTQSPSSLSASVGDRVTITCKASQDVGIAVAWYQQKPGKVPKLLIYWASTRHTGVPDRFSGSGSGTDFTLTISSLQPEDVATYYCQQYSSYPYTFGQGTKVEIKRTVAAPSVFIFPPSDEQLKSGTASVVCLLNNFYPREAKVQWKVDNALQSGNSQESVTEQDSKDSTYSLSSTLTLSKADYEKHKVYACEVTHQGLSSPVTKSFNRGECGAAAGGGGSGGGGSGGGGSEVQLVESGGGVVRPGGSLRLSCAASGFTFDDYGMSWVRQAPGKGLEWVSGINWNGGSTGYADSVKGRFTISRDNAKNSLYLQMNSLRAEDTAVYYCARGRSLLFDYWGQGTLVTVSR
heavy: EVQLVESGGGLVQPGGSLRLSCAASGFDFSRYWMSWVRQAPGKGLEWIGEINPDSSTINYAPSLKDKFIISRDNAKNSLYLQMNSLRAEDTAVYYCARPDGNYWYFDVWGQGTLVTVSSASTKGPSVFPLAPSSKSTSGGTAALGCLVKDYFPEPVTVSWNSGALTSGVHTFPAVLQSSGLYSLSSVVTVPSSSLGTQTYICNVNHKPSNTKVDKKVEPKSCGAAAGGGGSGGGGSSELTQDPAVSVALGQTVRITCQGDSLRSYYASWYQQKPGQAPVLVIYGKNNRPSGIPDRFSGSSSGNTASLTITGAQAEDEADYYCNSRDSSGNHVVFGGGTKLTVLGYPGGGGSDKTHTCPPCPAPPVAGPSVFLFPPKPKDTLMISRTPEVTCVVVDVSHEAPEVQFNWYVDGVEVHNAKTKPREEQFNSTFRVVSVLTVVHQDWLNGKEYKCKVSNKGLPAPIEKTISKTKGQPREPQVYTLPPSRDELTKNQVSLTCLVKGFYPSDIAVEWESNGQPENNYKTTPPVLDSDGSFFLYSKLTVDKSRWQQGNVFSCSVMHEALHNHYTQKSLSLSPGK
B2: Y116-B2 (bispecific antibody)
light: DIQMTQSPSSLSASVGDRVTITCKASQDVGIAVAWYQQKPGKVPKLLIYWASTRHTGVPDRFSGSGSGTDFTLTISSLQPEDVATYYCQQYSSYPYTFGQGTKVEIKRTVAAPSVFIFPPSDEQLKSGTASVVCLLNNFYPREAKVQWKVDNALQSGNSQESVTEQDSKDSTYSLSSTLTLSKADYEKHKVYACEVTHQGLSSPVTKSFNRGECGGGGSEAAAKGGGGSEVQLVESGGGVVRPGGSLRLSCAASGFTFDDYGMSWVRQAPGKGLEWVSGINWNGGSTGYADSVKGRFTISRDNAKNSLYLQMNSLRAEDTAVYYCARGRSLLFDYWGQGTLVTVSR
heavy: EVQLVESGGGLVQPGGSLRLSCAASGFDFSRYWMSWVRQAPGKGLEWIGEINPDSSTINYAPSLKDKFIISRDNAKNSLYLQMNSLRAEDTAVYYCARPDGNYWYFDVWGQGTLVTVSSASTKGPSVFPLAPSSKSTSGGTAALGCLVKDYFPEPVTVSWNSGALTSGVHTFPAVLQSSGLYSLSSVVTVPSSSLGTQTYICNVNHKPSNTKVDKKVEPKSCGGGGSEAAAKGGGGSSELTQDPAVSVALGQTVRITCQGDSLRSYYASWYQQKPGQAPVLVIYGKNNRPSGIPDRFSGSSSGNTASLTITGAQAEDEADYYCNSRDSSGNHVVFGGGTKLTVLGYPGGGGSDKTHTCPPCPAPPVAGPSVFLFPPKPKDTLMISRTPEVTCVVVDVSHEAPEVQFNWYVDGVEVHNAKTKPREEQFNSTFRVVSVLTVVHQDWLNGKEYKCKVSNKGLPAPIEKTISKTKGQPREPQVYTLPPSRDELTKNQVSLTCLVKGFYPSDIAVEWESNGQPENNYKTTPPVLDSDGSFFLYSKLTVDKSRWQQGNVFSCSVMHEALHNHYTQKSLSLSPGK
B3: Y316-A1 (bispecific antibody)
chain: EVQLVESGGGLVQPGGSLRLSCAASGFDFSRYWMSWVRQAPGKGLEWIGEINPDSSTINYAPSLKDKFIISRDNAKNSLYLQMNSLRAEDTAVYYCARPDGNYWYFDVWGQGTLVTVSSGGGGSGGGGSGGGGSDIQMTQSPSSLSASVGDRVTITCKASQDVGIAVAWYQQKPGKVPKLLIYWASTRHTGVPDRFSGSGSGTDFTLTISSLQPEDVATYYCQQYSSYPYTFGQGTKVEIKGGGGSASEVQLVESGGGVVRPGGSLRLSCAASGFTFDDYGMSWVRQAPGKGLEWVSGINWNGGSTGYADSVKGRFTISRDNAKNSLYLQMNSLRAEDTAVYYCARGRSLLFDYWGQGTLVTVSRGGGGSGGGGSGGGGSSELTQDPAVSVALGQTVRITCQGDSLRSYYASWYQQKPGQAPVLVIYGKNNRPSGIPDRFSGSSSGNTASLTITGAQAEDEADYYCNSRDSSGNHVVFGGGTKLTVLDKTHTCPPCPAPPVAGPSVFLFPPKPKDTLMISRTPEVTCVVVDVSHEAPEVQFNWYVDGVEVHNAKTKPREEQFNSTFRVVSVLTVVHQDWLNGKEYKCKVSNKGLPAPIEKTISKTKGQPREPQVYTLPPSRDELTKNQVSLTCLVKGFYPSDIAVEWESNGQPENNYKTTPPVLDSDGSFFLYSKLTVDKSRWQQGNVFSCSVMHEALHNHYTQKSLSLSPGK
notes: structure 3 Tandem-ScFv-Fc, A series, two identical fusion peptides; scFv Elotuzumab (anti-SLAMF7), scFv NM3E2 (anti-CD16)
B4: Y216-A1 (bispecific antibody, human IgG1, kappa)
light: DIQMTQSPSSLSASVGDRVTITCKASQDVGIAVAWYQQKPGKVPKLLIYWASTRHTGVPDRFSGSGSGTDFTLTISSLQPEDVATYYCQQYSSYPYTFGQGTKVEIKRTVAAPSVFIFPPSDEQLKSGTASVVCLLNNFYPREAKVQWKVDNALQSGNSQESVTEQDSKDSTYSLSSTLTLSKADYEKHKVYACEVTHQGLSSPVTKSFNRGEC
heavy: EVQLVESGGGLVQPGGSLRLSCAASGFDFSRYWMSWVRQAPGKGLEWIGEINPDSSTINYAPSLKDKFIISRDNAKNSLYLQMNSLRAEDTAVYYCARPDGNYWYFDVWGQGTLVTVSSASTKGPSVFPLAPSSKSTSGGTAALGCLVKDYFPEPVTVSWNSGALTSGVHTFPAVLQSSGLYSLSSVVTVPSSSLGTQTYICNVNHKPSNTKVDKKVEPKSCDKTHTCPPCPAPPVAGPSVFLFPPKPKDTLMISRTPEVTCVVVDVSHEAPEVQFNWYVDGVEVHNAKTKPREEQFNSTFRVVSVLTVVHQDWLNGKEYKCKVSNKGLPAPIEKTISKTKGQPREPQVYTLPPSRDELTKNQVSLTCLVKGFYPSDIAVEWESNGQPENNYKTTPPVLDSDGSFFLYSKLTVDKSRWQQGNVFSCSVMHEALHNHYTQKSLSLSPGAGGGGSGGGGSGGGGSGEVQLVESGGGVVRPGGSLRLSCAASGFTFDDYGMSWVRQAPGKGLEWVSGINWNGGSTGYADSVKGRFTISRDNAKNSLYLQMNSLRAEDTAVYYCARGRSLLFDYWGQGTLVTVSRGGGGSGGGGSGGGGSSELTQDPAVSVALGQTVRITCQGDSLRSYYASWYQQKPGQAPVLVIYGKNNRPSGIPDRFSGSSSGNTASLTITGAQAEDEADYYCNSRDSSGNHVVFGGGTKLTVL
notes: structure 2 IgG(H)-ScFv, A series; IgG Elotuzumab (anti-SLAMF7), scFv NM3E2 (anti-CD16)
B5: Y216-B1 (bispecific antibody, human IgG1, kappa)
light: DIQMTQSPSSLSASVGDRVTITCKASQDVGIAVAWYQQKPGKVPKLLIYWASTRHTGVPDRFSGSGSGTDFTLTISSLQPEDVATYYCQQYSSYPYTFGQGTKVEIKRTVAAPSVFIFPPSDEQLKSGTASVVCLLNNFYPREAKVQWKVDNALQSGNSQESVTEQDSKDSTYSLSSTLTLSKADYEKHKVYACEVTHQGLSSPVTKSFNRGEC
heavy: EVQLVESGGGLVQPGGSLRLSCAASGFDFSRYWMSWVRQAPGKGLEWIGEINPDSSTINYAPSLKDKFIISRDNAKNSLYLQMNSLRAEDTAVYYCARPDGNYWYFDVWGQGTLVTVSSASTKGPSVFPLAPSSKSTSGGTAALGCLVKDYFPEPVTVSWNSGALTSGVHTFPAVLQSSGLYSLSSVVTVPSSSLGTQTYICNVNHKPSNTKVDKKVEPKSCDKTHTCPPCPAPPVAGPSVFLFPPKPKDTLMISRTPEVTCVVVDVSHEAPEVQFNWYVDGVEVHNAKTKPREEQFNSTFRVVSVLTVVHQDWLNGKEYKCKVSNKGLPAPIEKTISKTKGQPREPQVYTLPPSRDELTKNQVSLTCLVKGFYPSDIAVEWESNGQPENNYKTTPPVLDSDGSFFLYSKLTVDKSRWQQGNVFSCSVMHEALHNHYTQKSLSLSPGAGGGGSGGGGSGGGGSGSELTQDPAVSVALGQTVRITCQGDSLRSYYASWYQQKPGQAPVLVIYGKNNRPSGIPDRFSGSSSGNTASLTITGAQAEDEADYYCNSRDSSGNHVVFGGGTKLTVLGGGGSGGGGSGGGGSEVQLVESGGGVVRPGGSLRLSCAASGFTFDDYGMSWVRQAPGKGLEWVSGINWNGGSTGYADSVKGRFTISRDNAKNSLYLQMNSLRAEDTAVYYCARGRSLLFDYWGQGTLVTVSR
notes: structure 2 IgG(H)-ScFv, B series; IgG Elotuzumab (anti-SLAMF7), scFv NM3E2 (anti-CD16)
B6: Y416-B1 (bispecific antibody, human IgG1, kappa)
light: EVQLVESGGGLVQPGGSLRLSCAASGFDFSRYWMSWVRQAPGKGLEWIGEINPDSSTINYAPSLKDKFIISRDNAKNSLYLQMNSLRAEDTAVYYCARPDGNYWYFDVWGQGTLVTVSSGGGGSGGGGSGGGGSSELTQDPAVSVALGQTVRITCQGDSLRSYYASWYQQKPGQAPVLVIYGKNNRPSGIPDRFSGSSSGNTASLTITGAQAEDEADYYCNSRDSSGNHVVFGGGTKLTVLRTVAAPSVFIFPPSDEQLKSGTASVVCLLNNFYPREAKVQWKVDNALQSGNSQESVTEQDSKDSTYSLSSTLTLSKADYEKHKVYACEVTHQGLSSPVTKSFNRGEC
heavy: DIQMTQSPSSLSASVGDRVTITCKASQDVGIAVAWYQQKPGKVPKLLIYWASTRHTGVPDRFSGSGSGTDFTLTISSLQPEDVATYYCQQYSSYPYTFGQGTKVEIKGGGGSGGGGSGGGGSEVQLVESGGGVVRPGGSLRLSCAASGFTFDDYGMSWVRQAPGKGLEWVSGINWNGGSTGYADSVKGRFTISRDNAKNSLYLQMNSLRAEDTAVYYCARGRSLLFDYWGQGTLVTVSRASTKGPSVFPLAPSSKSTSGGTAALGCLVKDYFPEPVTVSWNSGALTSGVHTFPAVLQSSGLYSLSSVVTVPSSSLGTQTYICNVNHKPSNTKVDKKVEPKSCDKTHTCPPCPAPPVAGPSVFLFPPKPKDTLMISRTPEVTCVVVDVSHEAPEVQFNWYVDGVEVHNAKTKPREEQFNSTFRVVSVLTVVHQDWLNGKEYKCKVSNKGLPAPIEKTISKTKGQPREPQVYTLPPSRDELTKNQVSLTCLVKGFYPSDIAVEWESNGQPENNYKTTPPVLDSDGSFFLYSKLTVDKSRWQQGNVFSCSVMHEALHNHYTQKSLSLSPGK
B7: ElotuzumAb (antibody, human IgG1, kappa, V domains shown)
VH: EVQLVESGGGLVQPGGSLRLSCAASGFDFSRYWMSWVRQAPGKGLEWIGEINPDSSTINYAPSLKDKFIISRDNAKNSLYLQMNSLRAEDTAVYYCARPDGNYWYFDVWGQGTLVTVSS
VL: DIQMTQSPSSLSASVGDRVTITCKASQDVGIAVAWYQQKPGKVPKLLIYWASTRHTGVPDRFSGSGSGTDFTLTISSLQPEDVATYYCQQYSSYPYTFGQGTKVEIKR
notes: anti-SLAMF7 monoclonal antibody, human IgG1 constant domains, kappa

What follows are binders tested against T1, Human SLAMF7 (human, UniProt Q9NQ25 23-226) (assay: ELISA, plate coated with His-tagged antigen).
T1 construct: also called SLAMF7 antigen; not shown: His tag
Work on B1 yielded an EC50 of 0.636 nM. B2 was tested, and the EC50 was 0.648 nM. With B3 the EC50 was 9.18 nM. B4 gave an EC50 of 0.715 nM. Binder B5 has an EC50 of 0.499 nM. With B6 the EC50 was 5.59 nM. B7 was tested, and the EC50 was 0.628 nM.
